Measurements from PMC3664818 (Nucleic Acids Research, 2013).

Target: T1, (His)6-Lif1-K301R (S. cerevisiae, UniProt P53150 1-421, K301R)
T1 sequence (looked up): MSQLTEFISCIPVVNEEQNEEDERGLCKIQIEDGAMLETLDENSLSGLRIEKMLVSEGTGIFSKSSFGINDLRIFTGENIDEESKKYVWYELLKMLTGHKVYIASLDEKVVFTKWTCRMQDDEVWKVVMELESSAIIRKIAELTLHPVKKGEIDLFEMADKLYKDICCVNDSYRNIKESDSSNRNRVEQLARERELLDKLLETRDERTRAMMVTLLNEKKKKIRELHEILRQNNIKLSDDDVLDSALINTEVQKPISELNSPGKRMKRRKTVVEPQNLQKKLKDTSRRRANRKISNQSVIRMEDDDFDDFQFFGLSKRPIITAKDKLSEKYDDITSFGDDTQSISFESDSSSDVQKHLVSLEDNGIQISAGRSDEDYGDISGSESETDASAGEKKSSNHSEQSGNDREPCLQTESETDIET
Assay: pull-down

B1: MBP-Nej1 (natural protein, S. cerevisiae, UniProt Q06148 1-342, looked up)
chain: MDSELKGQQLSDAEWCVKKINGEGNCLLLFLPMSSPTTIVMIVLVSLERLVPYVFKLSQTQLSQQCQSQGFTDSISLNLIKLKLMDILQAPQEINQIGLVDSNLVFSFDVSADITVSINSVPSHVTKDMFYMILQSLCMLLLKLVNLSTQYHYVQRDILNEKQKCLDFLLISLRDLDGGSKVISQWAPENSKNYESLQQCTDDDIIKKLLHKGKFQHQEFLADSLKTLLSLRNKFQDVSRFEESGELNKKERVRFPAVNHFYNDDFELQADPTNEARPNSRGKIKPKTDFKPKSRESSTSSQLRLENFSESEATPEKTKSSSSLVEEYPQKKRKFGKVRIKN
- binding result: binds
